Experimental findings from US20170189508A1 are described below.

In this test the target is HLA-A*02 (human). Briefly: UV peptide exchange + b2m ELISA, exchange yield grade.

Consider SLTEVSLPL [… (SEQ ID NO: 45)], for which the peptide exchange yield was 50 to 75%.
